This assay addresses VLDL receptor (Homo sapiens, UniProt P98155). Nature of the assay: SPR. On the technique in general: In SPR one partner is held on a chip, and binding of the other changes the refractive index at the surface.

B1: NDSK-II fragment of fibrin NDSK-II (central region) (protein)
chain 1: ADSGEGDFLAEGGGVRGPRVVERHQSACKDSDWPFCSDEDWNYKCPSGCRMKGLIDEVNQDFTNRINKLKNSLFEYQKNNKDSHSLTTNIMEILRGDFSSANNRDNTYNRVSEDLRSRIEVLKRKVIEKVQHIQLLQKNVRAQLVDMKRLEVDIDIKIRSCRGSCSRALAREVDLKDYEDQQKQLEQVIAKDLLPSRDRQHLPLIKMKPVPDLVPGNFKSQLQKVPPEWKALTDMPQMRMELERPGGNEITRGGSTSYGTGSETESPRNPSSAGSWNSGSSGPGSTGNRNPGSSGTGGTATWKPGSSGPGSTGSWNSGSSGTGSTGNQNPGSPRPGSTGTWNPGSSERGSAGHWTSESSVSGSTGQWHSESGSFRPDSPGSGNARPNNPDWGTFEEVSGNVSPGTRREYHTEKLVTSKGDKELRTGKEKVTSGSTTTTRRSCSKTVTKTVIGPDGHKEVTKEVVTSEDGSDCPEAMDLGTLSGIGTLDGFRHRHPDEAAFFDTASTGKTFPGFFSPMLGEFVSETESRGSESGIFTNTKESSSHHPGIAEFPSRGKSSSYSKQFTSSTSYNRGDSTFESKSYKMADEAGSEADHEGTHSTKRGHAKSRPVRDCDDVLQTHPSGTQSGIFNIKLPGSSKIFSVYCDQETSLGGWLLIQQRMDGSLNFNRTWQDYKRGFGSLNDEGEGEFWLGNDYLHLLTQRGSVLRVELEDWAGNEAYAEYHFRVGSEAEGYALQVSSYEGTAGDALIEGSVEEGAEYTSHNNMQFSTFDRDADQWEENCAEVYGGGWWYNNCQAANLNGIYYPGGSYDPRNNSPYEIENGVVWVSFRGADYSLRAVRMKIRPLVTQ
chain 2: QGVNDNEEGFFSARGHRPLDKKREEAPSLRPAPPPISGGGYRARPAKAAATQKKVERKAPDAGGCLHADPDLGVLCPTGCQLQEALLQQERPIRNSVDELNNNVEAVSQTSSSSFQYMYLLKDLWQKRQKQVKDNENVVNEYSSELEKHQLYIDETVNSNIPTNLRVLRSILENLRSKIQKLESDVSAQMEYCRTPCTVSCNIPVVSGKECEEIIRKGGETSEMYLIQPDSSVKPYRVYCDMNTENGGWTVIQNRQDGSVDFGRKWDPYKQGFGNVATNTDGKNYCGLPGEYWLGNDKISQLTRMGPTELLIEMEDWKGDKVKAHYGGFTVQNEANKYQISVNKYRGTAGNALMDGASQLMGENRTMTIHNGMFFSTYDRDNDGWLTSDPRKQCSKEDGGGWWYNRCHAANPNGRYYWGGQYTWDMAKHGTDDGVVWMNWKGSWYSMRKMSMKIRPFFPQQ
chain 3: YVATRDNCCILDERFGSYCPTTCGIADFLSTYQTKVDKDLQSLEDILHQVENKTSEVKQLIKAIQLTYNPDESSKPNMIDAATLKSRKMLEEIMKYEASILTHDSSIRYLQEIYNSNNQKIVNLKEKVAQLEAQCQEPCKDTVQIHDITGKDCQDIANKGAKQSGLYFIKPLKANQQFLVYCEIDGSGNGWTVFQKRLDGSVDFKKNWIQYKEGFGHLSPTGTTEFWLGNEKIHLISTQSAIPYALRVELEDWNGRTSTADYAMFKVGPEADKYRLTYAYFAGGDAGDAFDGFDFGDDPSDKFFTSHNGMQFSTWDNDNDKFEGNCAEQDGSGWWMNKCHAGHLNGVYYQGGTYSKASTPNGYDNGIIWATWKTRWYSMKKTTMKIIPFNRLTIGEGQQHHLGGAKQVRPEHPAETEYDSLYPEDDL
B1: the affinity, expressed as Kd, was 9.6 nM.

A word on the Kd: it is the constant that tells how readily two partners part at equilibrium.

Values taken from paper PMC7179994 (2019).
